Patent US20140322129A1 (Genentech, published 2014)

T1: irrelevant (Ig-V)-B7-H4 (Ig-C; D158-G236 including TM/CD D237-K282) chimeric membrane protein (Homo sapiens (Human), UniProt Q7Z7D3 158-282)
T1 construct: Transiently expressed on 293 cells; also called construct-88B; B7-H4 Ig-C domain; not shown: irrelevant Ig-V domain
T1 sequence: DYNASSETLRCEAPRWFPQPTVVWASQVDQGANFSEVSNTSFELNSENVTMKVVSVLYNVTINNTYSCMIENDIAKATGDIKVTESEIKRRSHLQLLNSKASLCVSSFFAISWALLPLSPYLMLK

T2: cynomolgus monkey B7-H4 (cynomolgus monkey, UniProt Q7Z7D3 29-282 (human entry))
T2 construct: Expressed on stably transfected 293 cells; also called cyno B7-H4
T2 chain: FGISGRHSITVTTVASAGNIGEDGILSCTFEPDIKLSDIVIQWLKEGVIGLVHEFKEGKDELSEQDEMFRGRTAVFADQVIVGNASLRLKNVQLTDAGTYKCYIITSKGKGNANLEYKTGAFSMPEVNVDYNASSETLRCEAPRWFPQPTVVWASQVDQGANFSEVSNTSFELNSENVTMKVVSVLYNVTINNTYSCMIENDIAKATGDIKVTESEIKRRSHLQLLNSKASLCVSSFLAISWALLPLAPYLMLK


Key:
[1] = molecular target: T1, irrelevant (Ig-V)-B7-H4 (Ig-C; …); assay: FACS of Dylight-488 or -650 labelled antibody on 293 cells transiently transfected with construct-88B
From the text: To determine whether the B7-H4 antibodies bind to either the Ig-V or Ig-C domain of B7-H4, chimeric Ig domain molecules were engineered that contain either a B7-H4 (IgV; G28-F150 including spacer S151-V157)—irrelevant (Ig-C) (construct-88) or an irrelevant (Ig-V)-B7-H4 (Ig-C; D158-G236 including TM/CD D237-K282) (construct-88B) membrane protein using standard molecular cloning methods. N-terminal or cytoplasmic tags were attached to confirm that 293 cells transfected with these constructs express protein on the cell membrane (data not shown). Briefly, 293 cells were transiently transfected with constructs 88 & 88B using polyfect. After 48 hours, the cells were stained with 10 μg/ml of Dylight-488 or -650 labeled ch9B9, ch1D11, ch22C10 or ch32D6 for 30-40 minutes at 4° C., washed and analyzed on a BD FACS calibur.

cynomolgus monkey B7-H4 = molecular target: T2, cynomolgus monkey B7-H4; assay: FACS titration on 293-cyno B7-H4 cells, geometric mean fluorescence
Protocol: The small-scale preps were initially screened by FACS and Scatchard Analyses to determine species-specificity and affinity (Kd) to recombinant and endogenous B7-H4. Initial EC₅₀ and species specificity were determined by incubating different concentrations (0-10 μg/ml) of the humanized variants with 293 cells overexpressing recombinant human-, cynomolgus-, or mouse-B7-H4, and the tumor cell line, MX-1, expressing endogenous human B7-H4, at 4° C. for 40 minutes followed by a wash and staining with a secondary goat-anti-human IgG antibody conjugated to Dylight-650 for 20 minutes at 4° C. The fluorescent signal was acquired with a BD FACS Calibur and EC₅₀ values were determined with the Graph Pad program Prism 4.

Row | Binder | binding result [1] | binding result (cynomolgus monkey B7-H4)
1 | ch1D11 with light chain C43G (antibody, V domains shown, Dylight-488 or -650 labelled in the assay; also called slightly modified version of ch1D11) VH: QVQLQQSGAELVRPGTSVKMSCKASGYTFTSYWIGWAKQRPGHGFEWIGDIYPGGGYTNYNEKFKGKATLTADKSSSTAYMQFSSLTSEDSAIYYCARLDGSSYRGAMDSWGQGTSITVSS VL: DIQMTQSPSSLSASLGGKVTITCKASQGFNKYVAWYQHKPGQGPRLLIHYTSTLQPGIPARFSGSGSGRDYSFSISNLEPEDSATYFCLQYGNLLYAFGGGTKLEIKR | no binding (tested: 10 ug/ml) | –
2 | hu1D11.v1.8 (antibody, V domains shown, also called h1D11.v1.8) VH: EVQLVQSGAEVKKPGASVKVSCKASGYTFTSYWIGWVRQAPGQGLEWIGDIYPGGGYTNYNEKFKGRATITRDTSTSTAYLELSSLRSEDTAVYYCARLDGSSYRGAMDSWGQGTLVTVSS VL: DIQMTQSPSSLSASVGDRVTITCKASQGFNKYVAWYQQKPGKAPKLLIYYTSTLQPGVPSRFSGSGSGRDYTLTISSLQPEDFATYYCLQYGNLLYAFGQGTKVEIKR | – | binds
3 | ch32D6 (antibody, human IgG1, V domains shown, also called chimeric 32D6) VH: EVQLQQSGPDLVKPGASVKISCKASGYSFTGYYIHWMKQSHGKSLEWIGRVNPNNGDPIYNQKFRGKAILTVDQSSNTAYMELRSLTSEASAVYYCARVLFYYGSPFAYWGQGTLVTVSA VL: DIVMTQSPSSLIVTAGEKVTMSCRSSQSLFDSGSQRNYLTWFHQKPGRPPKLLIYWASTRESGVPDRFTGSGSGTDFTLTISSVQTEDLAVYFCQNDYSFPFTFGSGTKLEEK | no binding (tested: 10 ug/ml) | –

More lines, now with the values ahead:

Row | binding result [1] | binding result (cynomolgus monkey B7-H4) | Binder
4 | no binding (tested: 10 ug/ml) | – | ch22C10 (antibody, human IgG1, V domains shown, also called chimeric 22C10; ch2210) VH: QVQLQQPGAELVKPGTSVKLSCKASGYTFTNFWIHWVIQRPGQGLEWIGEIDPSDSYTNYNQKFKGKATLTVDKSSNTAYMQLSSLTSEDSAVYYCSREITTVDYWGQGTTLTVSS VL: QIVLTQSPTIMSASPGEKVTLTCSATSSISYMHWYQQKPGTSPKGWIYDTSKLAHGVPARFSGSGSGTSYSLTISSMEAEDAATYYCHQRRSYPFTFGSGTKLEIK
5 | no binding (tested: 10 ug/ml) | – | ch9B9 (antibody, human IgG1, V domains shown, also called chimeric 9B9) VH: QVQLQQSGAELMKPGASVKMSCKATGYTFSSYWIEWVKQRPGHGLEWIGEILPGTSITTYNAKFKVKATFTADTSSNTAYMQLSSLTSEDSAVYFCARYYFGSSSFYFDYWGQGTSLTVSS VL: QAVVTQESALTTSPGDTVTLTCRSSTGAVTTSNYANWVQEKPDHLFTGLIGGTNNRVPGVPARFSGSLIGDKAALTITGAQTEDEAMYFCALWYNNHWVFGGGTKLE
